Measurements reported in patent US20040091487A1 (ALBERT EINSTEIN COLLEGE OF MEDICINE OF YESHIVA UNIVERSITY, published 2004).
Substitutions are numbered along the chain they refer to.

T1: GAL4AC-IN-2 (HIV-2, UniProt P04584 1172-1464)
T1 construct: domain: integrase
T1 sequence: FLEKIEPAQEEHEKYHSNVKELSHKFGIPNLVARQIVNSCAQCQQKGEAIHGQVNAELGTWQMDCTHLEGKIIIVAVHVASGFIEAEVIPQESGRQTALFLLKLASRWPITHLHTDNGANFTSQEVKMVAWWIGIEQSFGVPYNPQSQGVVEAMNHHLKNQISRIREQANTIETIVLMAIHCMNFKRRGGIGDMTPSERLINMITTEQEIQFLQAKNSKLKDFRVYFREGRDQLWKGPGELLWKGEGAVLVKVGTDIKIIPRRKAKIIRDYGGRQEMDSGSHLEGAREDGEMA

B1: GAL4-AC fusion of S6 mutant E3 (other)
chain: PEVLVPIRLDMEIDGQKLRDAFTWNMNEKLMTPEMFSEILCGDLDLNPLTFVPAIASAIRQQIESYPTDSILEDQSDQRVIIKLNIHVGNISLVDQFEWDMSEKENSPEKFA
notes: also called pGADNot-E3
B2: GAL4-AC fusion of S6 mutant E4 (other)
chain: B1 chain with T32A, G42D
B3: GAL4-AC fusion of S6 mutant E10 (other)
chain: B1 chain with G42D, D45G
B4: GAL4AC (other, UniProt P04386 768-881, looked up)
chain: ANFNQSGNIADSSLSFTFTNSSNGPNLITTQTNSQALSQPIASSNVHDNFMNNEITASKIDDGNNSKPLSPGWTDQTAYNAFGITTGMFNTTTMDDVYNYLFDDEDTPPNPKKE
notes: Negative control of the two-hybrid assay; also called GAL4AC alone
B5: LexADB (other, UniProt P0A7C2 1-87, looked up)
chain: MKALTARQQEVFDLIRDHISQTGMPPTRAEIAQRLGFRSPNAAEEHLKALARKGVIEIVSGASRGIRLLQEEEEGLPLVGRVAAGEP
notes: Negative control of the two-hybrid assay; also called LexADB alone

Legend:
LexADB-IN-1 [1] = target: T2, LexADB-IN-1 (HIV-1, UniProt P0A7C2 1-87; P04585 1148-1435); test: reverse yeast two-hybrid, X-Gal staining
T2 construct: Yeast two-hybrid fusion

LexADB-INI1/hSNF5 = target: T3, LexADB-INI1/hSNF5 (human, UniProt P0A7C2 1-87 (Escherichia coli entry), limits assumed); test: yeast two-hybrid, β-Gal staining
T3 construct: also called pSH2-INI1

LexADB-IN-1 [2] = target: T2, LexADB-IN-1; test: yeast two-hybrid, β-Gal staining
GAL4AC-IN-2 = target: T1, GAL4AC-IN-2; test: yeast two-hybrid, β-Gal staining
GAL4AC = target: B4; test: yeast two-hybrid, β-Gal staining
GAL4AC-IN-1 = target: T4, GAL4AC-IN-1 (HIV-1, UniProt P04585 1148-1435); test: yeast two-hybrid, β-Gal staining
T4 construct: domain: integrase

B1: no binding (LexADB-IN-1 [1]).

B2: no binding (LexADB-IN-1 [1]).

B3: no binding (LexADB-IN-1 [1]).

B4: no binding (LexADB-INI1/hSNF5); no binding (LexADB-IN-1 [2]).

B5: no binding (GAL4AC-IN-2); no binding (GAL4AC); no binding (GAL4AC-IN-1).
